Laboratory results as given in patent US9175313B2, “Three-dimensional structure of isoprene synthase and its use thereof for generating variants” (Danisco US Inc., priority 2009, dated 2015).

What was measured:
[1] = Specific activity measurement of purified isoprene synthase variants (4 mM DMAPP, 30 C, GC-MS headspace); format: biochemical; settings: 50 mM NaCl, 50 mM Tris pH = 8, 30° C.
Method: 1. Initial Purification—Resuspend the pellet in 3 ml of fresh lysis buffer. Break cells by passing them through the French Press using the small cylinder. Centrifuge samples for 1 hour at 30,000×G and collect the supernatant. Retain pellet in order to test for presence of insoluble protein. Pre equilibrate 0.5 mL Ni Sepharose 6 Fast Flow resin (Amersham) in a 20 ml disposable column with 10 mL of Ni wash buffer. Add protein to column and shake for 60 min at 4 C to bind protein. Elute protein with 2.5 mL Ni elution buffer.
2. Buffer Exchange—Equilibrate a PD-10 column (GE Healthcare) with 25 mL of PD-10 buffer. Load protein on to column and elute with 3.5 mL of PD-10 buffer.
10 uL of purified enzyme was incubated with 4 mM DMAPP, 50 mM MgCl2 in a buffer containing 50 mM Tris and 50 mM NaCl (pH=8) to a final volume of 100 uL for 15 min. at 30 C in gas tight 2 mL vials. Reactions were terminated with the addition of 100 uL of […] EDTA, pH=8. Samples were analyzed by GC-MS to determine the concentration of isoprene in the headspace of the vials. All specific activity measurements were performed in triplicate.
(§1) Protein concentration was determined by measuring the absorbance of each protein solution at 280 nm on a Helwlett Pachard 8453 UV-Vis spectrophotometer and converting the absorbance to protein concentration using the extinction coefficient as determined on the Expasy website (Gasteiger E., Hoogland C., Gattiker A., Duvaud S., Wilkins M. R., Appel R. D., Bairoch A.; Protein Identification and Analysis Tools on the ExPASy Server; (In) John M. Walker (ed): The Proteomics Protocols Handbook, Humana Press (2005). pp. 571-607). The protein concentrations of isoprene synthase variants assayed for KM and kcat determination were verified by comparative gel electrophoresis of a dilution series of each protein (FIG. 61).

[2] = kcat, KM and Ki determination, rate vs [DMAPP], fit to uncompetitive substrate inhibition; format: biochemical
Method: 10 uL of purified enzyme was incubated with DMAPP at concentrations ranging from 1.25 to 20 mM DMAPP in a buffer containing 50 mM Tris, 50 mM MgCl2 and 50 mM NaCl (pH=8) to a final volume of 100 uL for 15 min. at 30 C in gas tight 2 mL vials. Reactions were terminated with the addition of 100 uL of 250 mM EDTA, pH=8. Samples were analyzed by GC-MS to determine the concentration of isoprene in the headspace of the vials. Data were analyzed using Kaleidagraph and fit to following equation for uncompetitive substrate inhibition: rate/E=kcat*S/(KM+S*(1+S/Ki)). All kinetic assays were performed in triplicate.
as §1

[3] = Differential scanning calorimetry, thermal midpoint (Tm); format: physicochemical
Method: Excessive heat capacity curves were measured using an ultrasensitive scanning high-throughput microcalorimeter, VP-Cap DSC (MicroCal, Inc., Northampton, Mass.). The standard procedure for Differential Scanning calorimetry (DSC) measurements and the theory of the technique is previously published (Freire, E. (1995) Differential Scanning calorimetry Methods. Mol. Biol. 41, 191-218). Approximately 500 μL of 0.5 mg/ml IspS (from strain MD09-167) or variant IspS-L494P (from strain DW399) and IspS-T536F (from strain DW363) (in the absence or presence of 5 mM sodium pyrophosphate) were scanned over a 30-100° C. temperature range. The same sample was then re-scanned to check the reversibility of the process. For IspS the thermal unfolding process was irreversible. The buffer used was 50 mM HEPES, 5 mM MgCl2, pH 7.4, with and without 5 mM sodium pyrophosphate. Sodium pyrophosphate was included for its ability to function as a substrate analog. A 200° C./hr scan rate was used to minimize any artifacts that may result from aggregation. The thermal midpoint (Tm) of the DSC curves was used as an indicator of the thermal stability. The thermal melting curves and the melting points for the wild type IspS and variants are shown in FIG. 56 (buffer only) and 57 (with 5 mM sodium pyrophosphate).

Ki ([2]; uncompetitive substrate inhibition by DMAPP, average of three trials ± one standard deviation, read-out: KiDMAPP): 16 ± 9 mM
B1: wild type IspS: P. alba MEA (+) TEV isoprene synthase, MD09-163, strain MD09-167, SEQ ID NO: 63 (protein)
chain: MEARRSANYEPNSWDYDYLLSSDTDESIEVYKDKAKKLEAEVRREINNEKAEFLTLLELIDNVQRLGLGYRFESDIRGALDRFVSSGGFDAVTKTSLHGTALSFRLLRQHGFEVSQEAFSGFKDQNGNFLENLKEDIKAILSLYEASFLALEGENILDEAKVFAISHLKELSEEKIGKELAEQVNHALELPLHRRTQRLEAVWSIEAYRKKEDANQVLLELAILDYNMIQSVYQRDLRETSRWWRRVGLATKLHFARDRLIESFYWAVGVAFEPQYSDCRNSVAKMFSFVTIIDDIYDVYGTLDELELFTDAVERWDVNAINDLPDYMKLCFLALYNTINEIAYDNLKDKGENILPYLTKAWADLCNAFLQEAKWLYNKSTPTFDDYFGNAWKSSSGPLQLVFAYFAVVQNIKKEEIENLQKYHDTISRPSHIFRLCNDLASASAEIARGETANSVSCYMRTKGISEELATESVMNLIDETWKKMNKEKLGGSLFAKPFVETAINLARQSHCTYHNGDAHTSPDELTRKRVLSVITEPILPFERENLYFQGLEHHHHHH
modifications: TEV site
S.A. [1]: 480 ± 20 nmol/mg/min
Variant S.A./WT S.A. ([1]; ratio to WT): 1.0
rate profile vs [DMAPP] ([2]; 1.25 to 20 mM DMAPP, 30 C): uncompetitive substrate inhibition by DMAPP
Km ([2]; 1.25 to 20 mM DMAPP, 30 C, average of three trials ± one standard deviation): 7 ± 4 mM
kcat ([2]; 1.25 to 20 mM DMAPP, 30 C, average of three trials ± one standard deviation, in s^-1 (unit assumed)): 1.5 ± 0.6
thermal melting point (Tm) ([3]; buffer alone (50 mM HEPES, 5 mM MgCl2, pH 7.4)): 58.3 °C
thermal melting point (Tm) ([3]; in the presence of 5 mM sodium pyrophosphate): 54.7 °C
reversibility of the thermal unfolding process ([3]; re-scan of the same sample): irreversible
